Reference: publication PMC3079366
Read-outs that look alike come from different tables or passages of the source.

Measured: localisation_or_trafficking

GluA1: GluA1-4KR (K813, K819, K822, K868 to R) co-transfected with Nedd4-1 in HEK293T
abolishes: ubiquitination at K813 | ubiquitination at K819 | ubiquitination at K822 | ubiquitination at K868
